The record followed here is patent US20250257338A1 (JCR PHARMACEUTICALS, published 2025).

For test [1], the target named is T1, human TfR extracellular region with N-terminal histidine tag, hTfR-ECD (His tag) (human, UniProt P02786 87-760).
T1 construct: Loaded on the Ni-NTA biosensor in the BLI assay; 760 is the known length of human TfR, not a printed number; not shown: histidine tag at the N-terminus
Kind of test: BLI (Octet RED96), hTfR-ECD (His tag) on Ni-NTA biosensor, 1:1 model. As for the experimental part:
In addition, hTfR was adjusted to a concentration of 25 ng/ml, using HBS-P+ (1% BSA) to obtain an hTfR-ECD (His tag) solution.
The sample solution for hTfR affinity measurement was added to a 96-well plate, black (Greiner Bio-One International GmbH) at 200 μL/well. The hTfR-ECD (His tag) solution was added to predetermined wells at 200 μL/well. HBS-P+ (1% BSA) was added to wells for baseline, dissociation, and washing at 200 μL/well. 10 mM Glycine-HCl (pH 1.7) was added to wells for regeneration at 200 μL/well. 0.5 mM NiCl₂ (1% BSA) solution was added to wells for activation at 200 μL/well. This plate and a biosensor (Biosensor/Ni-NTA, ForteBio) were placed at predetermined positions in the Octet RED96.
Note that the measurement was carried out at a temperature of 25 to 30° C.

Test [2] addresses T2, human mannose-6-phosphate receptor (cation-independent) domain 9 recombinant protein with C-terminal … (human, UniProt P11717 1219-1364).
T2 construct: Loaded on the Ni-NTA biosensor; also called human M6PR; M6PR
Kind of test: BLI (Octet RED96), M6PR domain 9 (His tag) on Ni-NTA biosensor, 1:1 model. As for the experimental part: (§1) As the human M6PR, there was used a protein having the amino acid sequence represented by SEQ ID NO: 42, in which restriction enzyme-derived amino acids were added to both ends of the amino acid sequence corresponding to domain 9 from valine at the 1219th position to phenylalanine at the 1364th position from the N-terminus side in the amino acid sequence of a cation-independent mannose-6-phosphate receptor represented by SEQ ID NO: 41, and a histidine tag was further added to the C-terminus thereof.
(§2) In addition, human M6PR was adjusted to a concentration of […] with HBS-P+ to obtain an M6PR (His tag) solution.
(§3) The sample solution for M6PR affinity measurement was added to a 96-well plate, black (Greiner Bio-One International GmbH) at 200 μL/well. The M6PR (His tag) solution was added to predetermined wells at 200 μL/well. HBS-P+ was added to wells for baseline, dissociation, and washing at 200 μL/well. 10 mM Glycine-HCl (pH 1.7) was added to wells for regeneration at 200 μL/well. 0.5 mM NiCl₂ solution was added to wells for activation at 200 μL/well. This plate and a biosensor (Biosensor/Ni-NTA, ForteBio) were placed at predetermined positions in the Octet RED96.
On the technique in general: BLI is a label-free optical method that tracks binding on a fibre tip over time.

The target of test [3] is T2, human mannose-6-phosphate receptor …. Kind of test: BLI (Octet RED96), M6PR (His tag) on Ni-NTA biosensor. As for the experimental part:
as §1, §2, §3

Where a chain is given by its changes, count along the chain named. In names and notes the source's numbering stands.

T2 sequence (P11717 other isoform, or with tags, fused parts or gaps limits assumed): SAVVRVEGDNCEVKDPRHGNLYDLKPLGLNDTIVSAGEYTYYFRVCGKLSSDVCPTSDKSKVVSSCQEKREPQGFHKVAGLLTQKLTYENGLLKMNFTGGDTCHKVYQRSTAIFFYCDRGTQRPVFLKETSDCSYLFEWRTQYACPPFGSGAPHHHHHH
T1 sequence (P02786 other isoform, or with tags, fused parts or gaps): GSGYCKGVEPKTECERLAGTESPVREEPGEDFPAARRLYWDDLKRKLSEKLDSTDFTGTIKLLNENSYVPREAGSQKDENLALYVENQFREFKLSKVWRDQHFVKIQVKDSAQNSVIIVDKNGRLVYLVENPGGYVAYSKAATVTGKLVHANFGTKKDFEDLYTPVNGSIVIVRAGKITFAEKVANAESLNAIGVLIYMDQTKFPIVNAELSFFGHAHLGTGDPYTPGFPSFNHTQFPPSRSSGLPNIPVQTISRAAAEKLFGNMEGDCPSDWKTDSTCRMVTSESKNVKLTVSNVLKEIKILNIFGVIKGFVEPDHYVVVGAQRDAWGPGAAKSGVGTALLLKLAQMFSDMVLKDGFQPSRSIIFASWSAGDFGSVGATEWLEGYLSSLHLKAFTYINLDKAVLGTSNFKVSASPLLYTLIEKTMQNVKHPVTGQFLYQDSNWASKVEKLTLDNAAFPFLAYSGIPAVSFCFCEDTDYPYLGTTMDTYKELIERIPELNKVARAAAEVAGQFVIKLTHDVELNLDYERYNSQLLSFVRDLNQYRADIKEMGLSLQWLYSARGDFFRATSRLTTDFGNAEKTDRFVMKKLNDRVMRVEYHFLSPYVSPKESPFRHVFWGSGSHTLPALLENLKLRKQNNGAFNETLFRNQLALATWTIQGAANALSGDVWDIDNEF

B1: Fab-IDS (WT), fusion protein of wild-type hIDS and an anti-hTfR (Fab) antibody (Fab)
heavy: EVQLVQSGAEVKKPGESLKISCKGSGYSFMNYWLGWVRQMPGKGLEWMGDIYPGGDYPTYSEKFKVQVTISADKSISTAYLQLSSLKASDTAMYYCARSGNYDEVAYWGQGTLVTVSSASTKGPSVFPLAPSSKSTSGGTAALGCLVKDYFPEPVTVSWNSGALTSGVHTFPAVLQSSGLYSLSSVVTVPSSSLGTQTYICNVNHKPSNTKVDKKVEPKSCDKTHTGGGGSGGGGSGGGGSSETQANSTTDALNVLLIIVDDLRPSLGCYGDKLVRSPNIDQLASHSLLFQNAFAQQAVCAPSRVSFLTGRRPDTTRLYDFNSYWRVHAGNFSTIPQYFKENGYVTMSVGKVFHPGISSNHTDDSPYSWSFPPYHPSSEKYENTKTCRGPDGELHANLLCPVDVLDVPEGTLPDKQSTEQAIQLLEKMKTSASPFFLAVGYHKPHIPFRYPKEFQKLYPLENITLAPDPEVPDGLPPVAYNPWMDIRQREDVQALNISVPYGPIPVDFQRKIRQSYFASVSYLDTQVGRLLSALDDLQLANSTIIAFTSDHGWALGEHGEWAKYSNFDVATHVPLIFYVPGRTASLPEAGEKLFPYLDPFDSASQLMEPGRQSMDLVELVSLFPTLAGLAGLQVPPRCPVPSFHVELCREGKNLLKHFRFRDLEEDPYLPGNPRELIAYSQYPRPSDIPQWNSDKPSLKDIKIMGYSIRTIDYRYTVWVGFNPDEFLANFSDIHAGELYFVDSDPLQDHNMYNDSQGGDLFQLLMP
light: DIVMTQTPLSLSVTPGQPASISCRSSQSLVHSNGNTYLHWYLQKPGQSPQLLIYKVSNRFSGVPDRFSGSGSGTDFTLKISRVEAEDVGVYYCSQSTHVPWTFGQGTKVEIKRTVAAPSVFIFPPSDEQLKSGTASVVCLLNNFYPREAKVQWKVDNALQSGNSQESVTEQDSKDSTYSLSSTLTLSKADYEKHKVYACEVTHQGLSSPVTKSFNRGEC
modifications: N-linked sugar chains containing mannose-6-phosphate (M6P) on the asparagines at positions 221 and 255 of the hIDS portion (numbering of SEQ ID NO: 1)
notes: Humanized anti-hTfR Fab; Expressed in ExpiCHO cells
For orientation: Kd means the free concentration of one partner at which half of the binding sites on the other are occupied at equilibrium, for simple one-to-one binding. What is called koff is a measure of how fast the partners let go of each other. Broadly, the kon is the second-order rate constant of association. In test [1], B1 came in with a Kd of 0.67 nM, a koff of 0.000331 s⁻¹ and a kon of 494000 M⁻¹ s⁻¹. In addition, in test [2], the dissociation constant (Kd) turned out to be 2.32 nM, the off-rate constant (koff) amounted to 0.000586 s⁻¹ and the on-rate (kon) was 253000 M⁻¹ s⁻¹.

B2: Fab-IDS (m2), fusion protein of hIDS mutant muhIDS-2 (N221Q, N255Q) and an anti-hTfR (Fab) antibody (Fab)
heavy: B1 heavy with N462Q, N496Q
light: B1 light
As for B2, the binding result in test [3] is on record as “no binding”. Also, in test [1], the Kd stood at 0.661 nM, the koff was determined as 0.00031 s⁻¹ and the on-rate constant (kon) was found to be 469000 M⁻¹ s⁻¹.

B3: Fab-IDS (m1), fusion protein of hIDS mutant muhIDS-1 (T223A, S257A) and an anti-hTfR (Fab) antibody (Fab)
heavy: B1 heavy with T464A, S498A
light: B1 light
Take B3: the binding result in test [3] is “no binding”. In test [1], this molecule registered a Kd of 0.678 nM, a dissociation rate constant (koff) of 0.000331 s⁻¹ and an association rate constant (kon) of 489000 M⁻¹ s⁻¹.
